Data reported in patent US20230357395A1 (MARENGO THERAPEUTICS, published 2023).

T1: NKp30 on KHYG-1 NK cells (human, UniProt O14931 19-201)
T1 construct: whole, on cells; also called NK cell line KHYG-1; NKp30+ KHYG-1 cells
T1 sequence (looked up): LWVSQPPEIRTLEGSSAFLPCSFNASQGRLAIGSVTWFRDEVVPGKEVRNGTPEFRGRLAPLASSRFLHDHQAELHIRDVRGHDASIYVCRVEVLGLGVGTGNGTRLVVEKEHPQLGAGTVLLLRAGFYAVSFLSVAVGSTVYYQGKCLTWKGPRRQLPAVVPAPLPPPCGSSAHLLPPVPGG

T2: human NKp30 (construct not named) (human, UniProt O14931 19-135, limits assumed)
T2 construct: also called hNKp30
T2 sequence (looked up): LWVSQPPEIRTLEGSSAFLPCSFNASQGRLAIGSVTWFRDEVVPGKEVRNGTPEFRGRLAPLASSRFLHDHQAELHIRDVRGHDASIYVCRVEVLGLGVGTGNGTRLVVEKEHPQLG


Experiments:
NKp30 on KHYG-1 NK cells = target: T1, NKp30 on KHYG-1 NK cells; test: flow cytometry on NKp30+ KHYG-1 cells, antibody 200 nM to 0.003387 nM
Protocol: (§1) A flow cytometry-based assay was performed to check binding of anti-TRBC2x NKp30 to either TRBC2+ HPB-ALL cells, TRBC1+ Jurkat cells or NKp30+ KHYG-1 cells.
(§2) Each antibody was diluted to 200 nM and then serially diluted three-fold down to 0.003387 nM. Antibodies were incubated with each cell line for 1 hour at 4C. […] Zombie UV (BioLegend 423107) viability dye was added to the cells 1:1000 and incubated for 30 minutes at room temperature. Cells were analyzed on the CytoFlex LX flow cytometer.

[1] = target: T3, TRBC2 on TRBC2+ cell lines (HPB-ALL; HH; HDMAR2) (human, UniProt A0A5B9 1-178); test: flow cytometry on TRBC2+ HPB-ALL cells, antibody 200 nM to 0.003387 nM
T3 construct: whole, on cells; also called TRBC2+ HPB-ALL cells
Protocol: as §1, §2

[2] = target: T4, human TRBC2 (construct not named) (human, UniProt A0A5B9 1-129, limits assumed); test: SPR, bispecific captured via anti-human Fc on CM5, hTRBC2 from 125 nM in two-fold dilutions, 1:1 fit
T4 construct: also called hTRBC2
Protocol: (§3) In this example, surface plasmon resonance assay was performed to check binding of anti-TRBC2xNKp30 bispecific antibodies (bispecifics) to either hTRBC2, hTRBC1 or hNKp30 proteins. […] The bispecific antibodies may or may not have an N297A mutation in their Fc regions. FIG. 31B represents a design for monovalent TRBC2 control. Briefly, TRBC2xNKp30 bispecifics at 2 ug/mL were immobilized on CM5 chip via anti-human Fc antibody to 70 RU. Human TRBC2 or human TRBC1 antigens were diluted to 125 nM and then serially diluted two-fold. Association was 300 seconds and dissociation were 600 seconds. This assay was run in 1 x HBS-EP+ Buffer pH 7.4 and 25 C. The data was fit using a 1:1 binding model assess binding of bispecifics to NKp30, human NKp30 at 2 ug/mL was immobilized on CM5 chip via Anti-mouse Fc antibody to 70 RU. TRBC2xNKp30 bispecifics were diluted to 50 nM and then serially diluted two-fold. Association was 300 seconds and dissociation were 600 seconds. This assay was run in 1 x HBS-EP+ Buffer pH 7.4 and 25 C. The data was fit using a 1:1 binding model.

[3] = target: T2, human NKp30 (construct not named); test: SPR, human NKp30 captured via anti-mouse Fc on CM5, bispecific from 50 nM in two-fold dilutions, 1:1 fit
Protocol: as §3

[4] = target: T5, human TRBC1 (construct not named) (human, UniProt P01850 1-129, limits assumed); test: method not stated
T5 construct: also called hTRBC1
T5 sequence (P01850 1-129 limits assumed): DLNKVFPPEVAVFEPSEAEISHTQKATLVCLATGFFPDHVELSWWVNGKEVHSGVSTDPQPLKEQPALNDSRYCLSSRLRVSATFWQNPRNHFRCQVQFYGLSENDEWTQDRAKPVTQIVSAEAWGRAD

T4 sequence (A0A5B9 1-129 limits assumed): as the sequence (P01850 1-129 limits assumed) above, with N3K, K4N, E9K, F36Y counted along it
T3 sequence (A0A5B9 whole entry): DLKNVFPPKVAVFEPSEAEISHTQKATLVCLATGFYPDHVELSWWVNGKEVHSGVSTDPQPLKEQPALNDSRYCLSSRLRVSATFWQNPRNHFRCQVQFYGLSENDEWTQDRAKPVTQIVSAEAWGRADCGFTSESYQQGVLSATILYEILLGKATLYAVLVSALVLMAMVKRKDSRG

| Binder | EC50 (NKp30 on KHYG-1 NK cells) [nM] | EC50 [1] [nM] | Kd [2] [nM] | Kd [3] [nM] | Kd [4] [nM] |
| --- | --- | --- | --- | --- | --- |
| BKM0240 (anti-TRBC2/NKp30 bispecific antibody) (bispecific antibody, human IgG1, kappa, N297A, also called Parental Bispecific) heavy: not shown light: DVVMTQSPLSLPVTLGQPASISCRSSKNLVHSNGRTYLQWYQQRPGQSPRLLIYRVSNRFPGVPDRFSGSGSGTDFTLKISRVEAEDVGVYFCSQSTREPYTFGGGTKVEIKRTVAAPSVFIFPPSDEQLKSGTASVVCLLNNFYPREAKVQWKVDNALQSGNSQESVTEQDSKDSTYSLSSTLTLSKADYEKHKVYACEVTHQGLSSPVTKSFNRGEC scFv: EIQLLESGGGLVQPGGSLRLSCAVSGFSITTTGYHWNWVRQAPGKGLEWVGYIYSSGSTSYNPSLKSRFTISRDTSKNTFYLQMNSLRAEDTAVYYCARGDWHYFDYWGQGTMVTVSSGGGGSGGGGSGGGGSGGGGSDSVTTQSPLSLPVTLGQPASISCSGEKLSDKYVHWYQQRPGQSPRMLIYENDRRPSGVPDRFSGSNSGNDATLKISRVEAEDVGVYFCQFWDSTNSAVFGGGTKVEIKDKTHTCPPCPAPELLGGPSVFLFPPKPKDTLMISRTPEVTCVVVDVSHEDPEVKFNWYVDGVEVHNAKTKPREEQYASTYRVVSVLTVLHQDWLNGKEYKCKVSNKALPAPIEKTISKAKGQPREPQVCTLPPSREEMTKNQVSLSCAVKGFYPSDIAVEWESNGQPENNYKTTPPVLDSDGSFFLVSKLTVDKSRWQQGNVFSCSVMHEALHNHYTQKSLSLSPGK | 1.5 | 1.5 | 28 | 0.58 | – |
| BKM0314 (TRBC2/NKp30 bispecific) (bispecific antibody, human IgG1, kappa, N297A, Knob chain TRBC2 Fab-Fc and hole chain NKp30 scFv-Fc; also called Anti-TRBC2-NKp30-BIS-10) heavy: not shown light: DVVMTQSPLSLPVTLGQPASISCRSSKNLVHSNGRTYLQWYQQRPGQSPRLLIYRVSNRFPGVPDRFSGSGSGTDFTLKISRVEAEDVGVYFCSQSTREPYTFGGGTKVEIKRTVAAPSVFIFPPSDEQLKSGTASVVCLLNNFYPREAKVQWKVDNALQSGNSQESVTEQDSKDSTYSLSSTLTLSKADYEKHKVYACEVTHQGLSSPVTKSFNRGEC scFv: EIQLLESGGGLVQPGGSLRLSCAVSGFSITTTGYHWNWVRQAPGKGLEWVGYIYSSGSTSYNPSLKSRFTISRDTSKNTFYLQMNSLRAEDTAVYYCARGDWHYFDYWGQGTMVTVSSGGGGSGGGGSGGGGSGGGGSDSVTTQSPLSLPVTLGQPASISCSGEKLSDKYVHWYQQRPGQSPRMLIYENDRRPSGVPDRFSGSNSGNDATLKISRVEAEDVGVYFCQFWDSTNSAVFGGGTKVEIKDKTHTCPPCPAPELLGGPSVFLFPPKPKDTLMISRTPEVTCVVVDVSHEDPEVKFNWYVDGVEVHNAKTKPREEQYASTYRVVSVLTVLHQDWLNGKEYKCKVSNKALPAPIEKTISKAKGQPREPQVCTLPPSREEMTKNQVSLSCAVKGFYPSDIAVEWESNGQPENNYKTTPPVLDSDGSFFLVSKLTVDKSRWQQGNVFSCSVMHEALHNHYTQKSLSLSPGK | – | – | 92 | – | – |
| BKM0313 (TRBC2/NKp30 bispecific) (bispecific antibody, human IgG1, kappa, N297A, Knob chain TRBC2 Fab-Fc and hole chain NKp30 scFv-Fc; also called Anti-TRBC2-NKp30-BIS-9) heavy: not shown light: DVVMTQSPLSLPVTLGQPASISCRSSKNLVHSNGRTYLQWYQQRPGQSPRLLIYRVSNRFPGVPDRFSGSGSGTDFTLKISRVEAEDVGVYFCSQSTREPYTFGGGTKVEIKRTVAAPSVFIFPPSDEQLKSGTASVVCLLNNFYPREAKVQWKVDNALQSGNSQESVTEQDSKDSTYSLSSTLTLSKADYEKHKVYACEVTHQGLSSPVTKSFNRGEC scFv: EIQLLESGGGLVQPGGSLRLSCAVSGFSITTTGYHWNWVRQAPGKGLEWVGYIYSSGSTSYNPSLKSRFTISRDTSKNTFYLQMNSLRAEDTAVYYCARGDWHYFDYWGQGTMVTVSSGGGGSGGGGSGGGGSGGGGSDSVTTQSPLSLPVTLGQPASISCSGEKLSDKYVHWYQQRPGQSPRMLIYENDRRPSGVPDRFSGSNSGNDATLKISRVEAEDVGVYFCQFWDSTNSAVFGGGTKVEIKDKTHTCPPCPAPELLGGPSVFLFPPKPKDTLMISRTPEVTCVVVDVSHEDPEVKFNWYVDGVEVHNAKTKPREEQYASTYRVVSVLTVLHQDWLNGKEYKCKVSNKALPAPIEKTISKAKGQPREPQVCTLPPSREEMTKNQVSLSCAVKGFYPSDIAVEWESNGQPENNYKTTPPVLDSDGSFFLVSKLTVDKSRWQQGNVFSCSVMHEALHNHYTQKSLSLSPGK | – | – | 148 | – | – |
| BIM0460 (Example 8; format not stated) (antibody, V domains shown, Humanized JOVI.1 variant) VH: QVQLVQSGAEVKKPGSSVKVSCKASGYTFTGYVMHWVRQAPGQGLEWMGFINPYNDDIQSNERFRGRVTITSDKSTTTAYMELSSLRSEDTAVYYCARGAGYNFDGAYRFFDFWGQGTLVTVSS VL: DVVMTQSPLSLPVTLGQPASISCRSSQRLVHSNGNTYLHWYQQRPGQSPRLLIYRVSNRFPGVPDRFSGSGSGTDFTLKISRVEAEDVGVYFCSQSTHVPYTFGGGTKVEIK | – | – | – | – | 17 |

Next, values leading:

| EC50 (NKp30 on KHYG-1 NK cells) [nM] | EC50 [1] [nM] | Kd [2] [nM] | Kd [3] [nM] | Kd [4] [nM] | Binder |
| --- | --- | --- | --- | --- | --- |
| 4 | 4 | 89 | 0.63 | – | BKM0098 (anti-TRBC2/NKp30 bispecific antibody) (bispecific antibody, human IgG1, kappa, N297A, Anti-TRBC2 Fab-Fc and anti-NKp30 scFv-Fc; also called Anti-TRBC2-NKp30-BKM0098; Parental Bispecific) heavy: not shown light: DVVMTQSPLSLPVTPGEPASISCRSSQNLVHSNGRTYLQWYLQKPGQSPQLLIYRVSNRFPGVPDRFSGSGSGTDFTLKISRVEAEDVGVYFCSQSTHVPYTFGGGTKVEIKRTVAAPSVFIFPPSDEQLKSGTASVVCLLNNFYPREAKVQWKVDNALQSGNSQESVTEQDSKDSTYSLSSTLTLSKADYEKHKVYACEVTHQGLSSPVTKSFNRGEC scFv: EIQLLESGGGLVQPGGSLRLSCAVSGFSITTTGYHWNWVRQAPGKGLEWVGYIYSSGSTSYNPSLKSRFTISRDTSKNTFYLQMNSLRAEDTAVYYCARGDWHYFDYWGQGTMVTVSSGGGGSGGGGSGGGGSGGGGSDSVTTQSPLSLPVTLGQPASISCSGEKLSDKYVHWYQQRPGQSPRMLIYENDRRPSGVPDRFSGSNSGNDATLKISRVEAEDVGVYFCQFWDSTNSAVFGGGTKVEIKDKTHTCPPCPAPELLGGPSVFLFPPKPKDTLMISRTPEVTCVVVDVSHEDPEVKFNWYVDGVEVHNAKTKPREEQYASTYRVVSVLTVLHQDWLNGKEYKCKVSNKALPAPIEKTISKAKGQPREPQVCTLPPSREEMTKNQVSLSCAVKGFYPSDIAVEWESNGQPENNYKTTPPVLDSDGSFFLVSKLTVDKSRWQQGNVFSCSVMHEALHNHYTQKSLSLSPGK |
| 1.1 | 1.1 | 31 | 0.54 | – | BKM0312 (anti-TRBC2/NKp30 bispecific antibody) (bispecific antibody) chain 1: not shown chain 2: DVVMTQSPLSLPVTLGQPASISCRSSKNLVHSNGRTYLQWYQQRPGQSPRLLIYRVSNRFPGVPDRFSGSGSGTDFTLKISRVEAEDVGVYFCSQSTREPYTFGGGTKVEIKRTVAAPSVFIFPPSDEQLKSGTASVVCLLNNFYPREAKVQWKVDNALQSGNSQESVTEQDSKDSTYSLSSTLTLSKADYEKHKVYACEVTHQGLSSPVTKSFNRGEC chain 3: EIQLLESGGGLVQPGGSLRLSCAVSGFSITTTGYHWNWVRQAPGKGLEWVGYIYSSGSTSYNPSLKSRFTISRDTSKNTFYLQMNSLRAEDTAVYYCARGDWHYFDYWGQGTMVTVSSGGGGSGGGGSGGGGSGGGGSDSVTTQSPLSLPVTLGQPASISCSGEKLSDKYVHWYQQRPGQSPRMLIYENDRRPSGVPDRFSGSNSGNDATLKISRVEAEDVGVYFCQFWDSTNSAVFGGGTKVEIKDKTHTCPPCPAPELLGGPSVFLFPPKPKDTLMISRTPEVTCVVVDVSHEDPEVKFNWYVDGVEVHNAKTKPREEQYASTYRVVSVLTVLHQDWLNGKEYKCKVSNKALPAPIEKTISKAKGQPREPQVCTLPPSREEMTKNQVSLSCAVKGFYPSDIAVEWESNGQPENNYKTTPPVLDSDGSFFLVSKLTVDKSRWQQGNVFSCSVMHEALHNHYTQKSLSLSPGK |
| 0.33 | 0.33 | 9.2 | 0.63 | – | BKM0311 (anti-TRBC2/NKp30 bispecific antibody) (bispecific antibody, human IgG1, kappa, N297A) heavy: not shown light: DVVMTQSPLSLPVTLGQPASISCRSSKNLVHSNGRTYLQWYQQRPGQSPRLLIYRVSNRFPGVPDRFSGSGSGTDFTLKISRVEAEDVGVYFCSQSTREPYTFGGGTKVEIKRTVAAPSVFIFPPSDEQLKSGTASVVCLLNNFYPREAKVQWKVDNALQSGNSQESVTEQDSKDSTYSLSSTLTLSKADYEKHKVYACEVTHQGLSSPVTKSFNRGEC scFv: EIQLLESGGGLVQPGGSLRLSCAVSGFSITTTGYHWNWVRQAPGKGLEWVGYIYSSGSTSYNPSLKSRFTISRDTSKNTFYLQMNSLRAEDTAVYYCARGDWHYFDYWGQGTMVTVSSGGGGSGGGGSGGGGSGGGGSDSVTTQSPLSLPVTLGQPASISCSGEKLSDKYVHWYQQRPGQSPRMLIYENDRRPSGVPDRFSGSNSGNDATLKISRVEAEDVGVYFCQFWDSTNSAVFGGGTKVEIKDKTHTCPPCPAPELLGGPSVFLFPPKPKDTLMISRTPEVTCVVVDVSHEDPEVKFNWYVDGVEVHNAKTKPREEQYASTYRVVSVLTVLHQDWLNGKEYKCKVSNKALPAPIEKTISKAKGQPREPQVCTLPPSREEMTKNQVSLSCAVKGFYPSDIAVEWESNGQPENNYKTTPPVLDSDGSFFLVSKLTVDKSRWQQGNVFSCSVMHEALHNHYTQKSLSLSPGK |
